These results are taken from patent publication US20240226230A1 (MAYO FOUNDATION FOR MEDICAL EDUCATION AND RESEARCH, published 2024).

In one test the target is T1, Nup62-mCherry (UniProt P37198 1-522).
T1 construct: mCherry replaced GFP in pNup62-EGFP3; also called mCherry-tagged Nup62; not shown: mCherry tag
T1 sequence: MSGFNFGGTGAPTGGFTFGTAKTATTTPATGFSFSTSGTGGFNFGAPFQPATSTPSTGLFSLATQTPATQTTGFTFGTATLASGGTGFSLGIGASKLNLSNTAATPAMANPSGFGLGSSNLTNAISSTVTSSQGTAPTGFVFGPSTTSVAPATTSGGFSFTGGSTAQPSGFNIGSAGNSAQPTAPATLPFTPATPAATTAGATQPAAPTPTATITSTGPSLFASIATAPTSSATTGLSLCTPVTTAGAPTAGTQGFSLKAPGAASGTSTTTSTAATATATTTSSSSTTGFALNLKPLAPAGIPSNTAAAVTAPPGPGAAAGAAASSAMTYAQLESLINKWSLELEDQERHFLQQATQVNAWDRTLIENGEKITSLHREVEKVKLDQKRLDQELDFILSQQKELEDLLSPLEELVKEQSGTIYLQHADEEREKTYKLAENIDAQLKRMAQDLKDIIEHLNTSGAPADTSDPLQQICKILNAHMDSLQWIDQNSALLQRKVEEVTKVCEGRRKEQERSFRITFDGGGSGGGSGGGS
Put plainly: co-localisation by fluorescence microscopy of co-transfected cells.

The next test has as its target T2, GFP-Nup98 (UniProt P52948 1-880).
T2 construct: Bought plasmid; not shown: GFP tag
T2 sequence (looked up): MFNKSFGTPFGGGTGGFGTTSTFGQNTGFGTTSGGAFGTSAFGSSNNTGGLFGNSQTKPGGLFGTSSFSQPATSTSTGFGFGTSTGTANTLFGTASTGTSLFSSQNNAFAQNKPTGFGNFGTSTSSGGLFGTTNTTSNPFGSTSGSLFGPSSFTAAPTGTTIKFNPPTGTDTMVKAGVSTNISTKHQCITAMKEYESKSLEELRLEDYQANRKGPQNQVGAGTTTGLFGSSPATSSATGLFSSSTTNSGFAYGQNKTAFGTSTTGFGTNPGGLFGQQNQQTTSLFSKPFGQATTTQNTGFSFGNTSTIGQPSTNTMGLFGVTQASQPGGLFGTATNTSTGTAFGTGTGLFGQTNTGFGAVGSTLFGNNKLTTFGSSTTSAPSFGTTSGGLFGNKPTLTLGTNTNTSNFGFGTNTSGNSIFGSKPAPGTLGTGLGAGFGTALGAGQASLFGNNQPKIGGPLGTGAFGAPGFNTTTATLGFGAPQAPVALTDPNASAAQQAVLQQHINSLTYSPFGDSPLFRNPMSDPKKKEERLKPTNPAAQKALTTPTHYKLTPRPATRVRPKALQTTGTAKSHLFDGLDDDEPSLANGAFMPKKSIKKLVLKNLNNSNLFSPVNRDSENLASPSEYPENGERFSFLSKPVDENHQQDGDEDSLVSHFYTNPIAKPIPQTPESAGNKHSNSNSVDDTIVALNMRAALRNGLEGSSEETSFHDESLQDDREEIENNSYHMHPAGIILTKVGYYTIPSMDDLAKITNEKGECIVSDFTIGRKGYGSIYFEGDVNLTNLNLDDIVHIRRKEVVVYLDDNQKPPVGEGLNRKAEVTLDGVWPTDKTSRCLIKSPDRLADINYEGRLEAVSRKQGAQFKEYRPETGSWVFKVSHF
In words: co-localisation by immunofluorescence in HEK293T cells (FIG. 35). An excerpt: FIG. 35: Nup98 strongly associates with TDP-CTF^WT, but not TDP-CTF^VLIM-F and sTDP. […] Arrowheads point to co-aggregation. Hoechst staining was used to outline nuclei. Scale bar: 5 μm.

The next test concerns the target endogenous Ran (human, UniProt P62826 2-216). Put plainly: GFP-Trap IP from HEK293T lysates, western blot. An excerpt:
(§1) FIGS. 29A-29C: Untagged KPNB1 interacts with both the RRM2 and PrLD of TDP-CTF. FIG. 29A) (Left) Lysates from HEK293T cells expressing GFP alone, or untagged KPNB1 with GFP, GFP-TDP-CTF or GFP-TDP43^WT were subjected to immunoprecipitation with GFP-Trap magnetic beads. Whole cell lysates (input) and immunoprecipitates (IP) were subjected to western blot analysis using indicated antibodies. (Right) Quantification of relative KPNB1 levels in IP normalized by KPNB1 levels in input. Statistical analysis was performed using one-way ANOVA and Bonferroni's post hoc test (**p<0.01, ***p<0.001, n=3). […] FIG. 29C) (Left) Lysates from HEK293T cells expressing GFP alone, or untagged KPNB1 with GFP, GFP-TDP-CTF, GFP-TDP-CTF^non-PrLD or GFP-TDP-PrLD were subjected to immunoprecipitation with GFP-Trap magnetic beads. Whole cell lysates (input) and immunoprecipitates (IP) were subjected to western blot analysis using indicated antibodies. (Right) Quantification of relative KPNB1 levels in IP normalized by KPNB1 levels in input. Statistical analysis was performed using one-way ANOVA and Bonferroni's post hoc test (***p<0.001, n=3).
(§2) FIGS. 31A-31C: The PrLD of TDP-43 interacts with FG-Nups and KPNB1. FIG. 31A) Immunofluorescence (IF) of HEK293T cells expressing GFP or GFP-TDP-PrLD and stained for endogenous Nup98 and Nup62. TDP-PrLD forms small cytoplasmic foci positive for Nup62. FIG. 31B) IF of HEK293T cells expressing GFP or GFP-TDP-PrLD and stained for endogenous KPNB1. KPNB1 colocalizes with TDP-PrLD foci in the cytoplasm. Hoechst staining was used to outline nuclei. Scale bar: 5 μm. FIG. 31C) Lysates from HEK293T cells expressing GFP or GFP-TDP-PrLD were subjected to immunoprecipitation with GFP-Trap magnetic beads. Whole cell lysates (input) and immunoprecipitates (IP) were subjected to western blot analysis using indicated antibodies. The PrLD of TDP-43 interacts with Nup62, Nup98 and KPNB1, but not with Ran.
(§3) HEK293T cells were seeded in 6-well plates and transfected for 48 hours. Cells were then lysed in IP Lysis buffer (Fisher) supplemented with a protease inhibitor cocktail (Roche), and were centrifuged at 15000 rpm for 20 minutes at 4° C. A small aliquot of the recovered supernatant was set aside (input).

The next test deals with T3, Untagged KPNB1 (Homo sapiens (Human), UniProt Q14974 1-876).
T3 construct: KPNB1 amplified by PCR and cloned into pEGFP-C1 lacking the GFP tag; also called Wildtype KPNB1
T3 sequence (Q14974 whole entry): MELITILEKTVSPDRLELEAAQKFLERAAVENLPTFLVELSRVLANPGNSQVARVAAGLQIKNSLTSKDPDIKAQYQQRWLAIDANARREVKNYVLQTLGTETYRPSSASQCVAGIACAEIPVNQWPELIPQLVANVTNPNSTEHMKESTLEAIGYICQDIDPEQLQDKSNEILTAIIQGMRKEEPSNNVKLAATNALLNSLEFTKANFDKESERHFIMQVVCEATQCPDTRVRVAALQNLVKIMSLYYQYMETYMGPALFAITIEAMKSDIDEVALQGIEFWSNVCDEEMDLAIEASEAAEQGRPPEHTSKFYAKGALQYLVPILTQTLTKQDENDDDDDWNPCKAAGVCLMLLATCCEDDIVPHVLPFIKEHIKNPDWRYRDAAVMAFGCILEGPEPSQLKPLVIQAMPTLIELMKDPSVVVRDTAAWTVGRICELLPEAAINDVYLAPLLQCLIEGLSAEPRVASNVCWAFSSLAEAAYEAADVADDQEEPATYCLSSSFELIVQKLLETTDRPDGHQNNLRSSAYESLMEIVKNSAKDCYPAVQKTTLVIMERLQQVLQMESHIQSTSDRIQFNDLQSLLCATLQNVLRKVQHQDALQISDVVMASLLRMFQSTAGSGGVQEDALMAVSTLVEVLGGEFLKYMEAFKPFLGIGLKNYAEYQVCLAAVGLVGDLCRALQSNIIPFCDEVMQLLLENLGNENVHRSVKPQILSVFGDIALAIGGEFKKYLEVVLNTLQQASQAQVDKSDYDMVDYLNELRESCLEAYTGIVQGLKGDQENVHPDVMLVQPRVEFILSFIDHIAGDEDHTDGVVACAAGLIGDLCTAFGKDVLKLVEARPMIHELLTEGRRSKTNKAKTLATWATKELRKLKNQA
In words: GFP-Trap IP from HEK293T lysates, western blot.
Text: as §1, §2, §3
(In general: A western blot detects proteins with antibodies after separation by electrophoresis.)

Another test has as its target T4, endogenous Nup98 (human, UniProt P52948 1-880).
T4 sequence (looked up): T2 sequence (looked up)
In words: GFP-Trap IP from HEK293T lysates, western blot.
Text: as §1, §2, §3

The target in a further test is T5, endogenous KPNB1 (human, UniProt Q14974 1-876).
T5 construct: Endogenous protein detected with anti-KPNB1
T5 sequence (Q14974 whole entry): as above
In words: co-localisation by immunofluorescence in HEK293T cells (not a direct binding assay).
Text: as §2

For test [1], the target named is T6, endogenous Nup62 (human, UniProt P37198 2-522).
T6 construct: Detected with anti-Nup62
T6 sequence (looked up): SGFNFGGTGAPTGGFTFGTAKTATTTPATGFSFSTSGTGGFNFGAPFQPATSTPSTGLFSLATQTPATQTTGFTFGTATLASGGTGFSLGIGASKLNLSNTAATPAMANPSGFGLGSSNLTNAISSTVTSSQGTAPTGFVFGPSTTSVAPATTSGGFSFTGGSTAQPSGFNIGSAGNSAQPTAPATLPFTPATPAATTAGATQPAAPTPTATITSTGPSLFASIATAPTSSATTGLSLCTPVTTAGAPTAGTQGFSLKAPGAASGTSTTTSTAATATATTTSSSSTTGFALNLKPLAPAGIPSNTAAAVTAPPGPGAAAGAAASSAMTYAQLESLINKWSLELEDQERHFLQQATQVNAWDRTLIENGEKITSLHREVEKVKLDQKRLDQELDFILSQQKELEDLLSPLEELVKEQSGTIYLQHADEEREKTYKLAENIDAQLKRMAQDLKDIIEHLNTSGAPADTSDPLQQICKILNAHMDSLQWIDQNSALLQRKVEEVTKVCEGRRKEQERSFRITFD
Described as above.
Text: as §2

The target in test [2] is T6, endogenous Nup62. In words: co-IP, western blot. An excerpt: RanGTP and importin-α interact with H1-8 and H8-19, respectively. FG-Nups bind to two regions of KPNB1, H5-7 and H14-16. FIG. 21B) Lysates from HEK293T cells expressing GFP, GFP-KPNB1 full-length (FL), N-terminal fragments of KPNB1 (H1-9 . . . H1) or the C-terminal fragment of KPNB1 (H10-19) were subjected to immunoprecipitation with GFP-Trap magnetic beads. Whole cell lysates (input) and immunoprecipitates (IP) were subjected to western blot analysis using indicated antibodies. KPNB1 H1-8, the smallest fully active KPNB1 fragment in reducing TDP-43 aggregation, strongly interacts with FG-Nups and Ran, and weakly with importin-al in comparison with full-length KPNB1. FIG. 21C) (Top) Schematic domain structure of KPNB1 H1-8^mNIS harboring four missense mutations (1178A, F217A, Y255A, I263R) in the nucleoporin-interacting site (NIS). (Bottom) Lysates from HEK293T cells expressing GFP, GFP-KPNB1 H1-8^WT or H1-8^mNIS were subjected to immunoprecipitation with GFP-Trap magnetic beads. Whole cell lysates (input) and immunoprecipitates (IP) were subjected to western blot analysis using indicated antibodies. […] Hoechst staining was used to outline nuclei. Scale bar: 5 μm. […] FIG. 21G) Quantification of the percentage of cells with cytoplasmic GR aggregates positive for endogenous TDP-43.

B1: GFP-TDP-43^mNLS 1-265 (other, human)
chain: GGGSGGGSGGGSMSEYIRVTEDENDEPIEIPSEDDGTVLLSTVTAQFPGACGLRYRNPVSQCMRGVRLVEGILHAPDAGWGNLVYVVNYPKDNAAAMDETDASSAVAVAAAVQKTSDLIVLGLPWKTTEQDLKEYFSTFGEVLMVQVKKDLKTGHSKGFGFVRFTEYETQVKVMSQRHMIDGRWCDCKLPNSKQSQDEPLRSRKVFVGRCTEDMTEDELREFFSQYGDVMDVFIPKPFRAFAFVTFADDQIAQSLCGEDLIIKGISVHISNAEPKHN
notes: not shown: GFP/EGFP tag (pEGFP-C1, Clontech)
Regarding B1, the binding result with Nup62-mCherry is listed as “no binding”.

B2: mCherry-TDP-CTF^VLIM-F (other)
chain: GGGSGGGSGGGSREFFSQYGDVMDVFIPKPFRAFAFVTFADDQIAQSLCGEDLIIKGISVHISNAEPKHNSNRQFERSGRFGGNPGGFGNQGGFGNSRGGGAGFGNNQGSNFGGGFNFGAFSFNPAMMAAAQAALQSSWGMMGMLASQQNQSGPSGNNQNQGNFQREPNQAFGSGNNSYSGSNSGAAFGWGSASNAGSGSGFNGGFGSSFDSKSSGWF
notes: also called mCherry-tagged TDP-CTF^VLIM-F; not shown: mCherry tag (mCherry-C1, Clontech)
On to B2, for which, in the test with GFP-Nup98, the binding result is “no binding”.

B3: GFP-TDP-PrLD (other, human)
chain: GGGSGGGSGGGSRFGGNPGGFGNQGGFGNSRGGGAGLGNNQGSNMGGGMNFGAFSINPAMMAAAQAALQSSWGMMGMLASQQNQSGPSGNNQNQGNMQREPNQAFGSGNNSYSGSNSGAAIGWGSASNAGSGSGFNGGFGSSMDSKSSGWGM
notes: also called GFP-TDP-43 PrLD; TDP-PrLD (aa275-414); not shown: GFP/EGFP tag (pEGFP-C1, Clontech)
Consider B3, for which the binding result in the test with endogenous Ran is “no binding”; in the test with Untagged KPNB1 it was “binds”; with endogenous Nup98 it was “binds”; with endogenous KPNB1 it was “binds”; with endogenous Nup62 [1] it was “binds”.

B4: GFP-KPNB1 H1-8^mNIS (receptor)
chain: GGGSGGGSGGGSMELITILEKTVSPDRLELEAAQKFLERAAVENLPTFLVELSRVLANPGNSQVARVAAGLQIKNSLTSKDPDIKAQYQQRWLAIDANARREVKNYVLQTLGTETYRPSSASQCVAGIACAEIPVNQWPELIPQLVANVTNPNSTEHMKESTLEAIGYICQDIDPEQLQDKSNEILTAIAQGMRKEEPSNNVKLAATNALLNSLEFTKANFDKESERHAIMQVVCEATQCPDTRVRVAALQNLVKIMSLYYQYMETAMGPALFARTIEAMKSDIDEVALQGIEFWSNVCDEEMDLAIEASEAAEQGRPPEHTSKFYAKGALQYLVPILTQTLTKQDENDDDDDWNPCKAAGVCLMLLATCCED
notes: also called KPNB1-mNIS; not shown: GFP/EGFP tag (pEGFP-C1, Clontech)
As to B4, the binding result with endogenous Nup62 [2] is on record as “no binding”.
